Measurements published in paper PMC2821923, “Visualizing Interactions along the Escherichia coli Twin-Arginine Translocation Pathway Using Protein Fragment Complementation” (PLoS ONE, 2010).
One block for each molecule: values may come before it.

Key:
[1] = biological target: TatC(P48A) fused to a YFP fragment (P48A-Y1; P48A-Y2) (E. coli) (UniProt P69423); assay: split reporter (BiFC, NanoBiT); split YFP BiFC in living TG1 ΔtatABCE cells (TatA also in ΔtatAE, TatB/TatC also in ΔtatB and ΔtatC); median fluorescence by flow cytometry against unfused Y1 or Y2 controls, fluorescence microscopy
[2] = biological target: TatB fused to a YFP fragment (TatB-Y1; TatB-Y2) (E. coli) (UniProt P69425); assay: as above
[3] = biological target: TatC(E103R) fused to a YFP fragment (E103R-Y1; E103R-Y2) (E. coli) (UniProt P69423); assay: as above
[4] = biological target: TatC fused to a YFP fragment (TatC-Y1; TatC-Y2) (E. coli) (UniProt P69423); assay: as above
[5] = biological target: ssDmsA-Y1 (DmsA signal peptide fused to the N-terminal YFP fragment) (E. coli); assay: split reporter (BiFC, NanoBiT); split YFP (Y1 1-154, Y2 155-238) BiFC in living E. coli TG1 cells (wt; also ΔtatE, ΔtatB, ΔtatC, ΔtatAE, ΔtatABCE); 1 mM IPTG, 8 h at room temperature; median cell fluorescence by flow cytometry, normalised to ssDmsA-Y1/DmsD-Y2, and fluorescence microscopy; substrate or signal peptide with …
[6] = biological target: DmsA-Y1 (entire DmsA enzyme fused to the N-terminal YFP fragment) (E. coli) (UniProt P18775); assay: as above
[7] = biological target: the molecule itself; assay: split reporter (BiFC, NanoBiT); split YFP BiFC in living TG1 ΔtatABCE cells (TatA also in ΔtatAE, TatB/TatC also in ΔtatB and ΔtatC); median fluorescence by flow cytometry against unfused Y1 or Y2 controls, fluorescence microscopy

BiFC fluorescence, fold over background (unfused Y1 with DmsD-Y2) [5]: 5 fold
median fluorescence (M) [5]: 2250
ssDmsA binding activity ([5]; scale: relative): 1
BiFC signal relative to the ssDmsA-Y1/DmsD-Y2 pair [6]: 50%
DmsA binding activity ([6]; scale: relative): 0.62
Molecule: DmsD fused to a YFP fragment (DmsD-Y2; DmsD-Y1) (from UniProt P69853 1-204) (natural protein)

BiFC signal, fold above background [2]: 5.4 fold
BiFC signal, fold above background [4]: 10.7 fold
Molecule: ssDmsA(KK)-Y1 (domain or fragment)

Further lines, the molecule ahead of its results:

Molecule: ssDmsA-Y1 (DmsA signal peptide fused to the N-terminal YFP fragment) (domain or fragment)
BiFC signal, fold less than with wt TatC [1]: 2 fold
BiFC signal, fold above background [2]: 3.5 fold
BiFC signal, fold less than with wt TatC [3]: 2 fold
BiFC signal, fold above background [4]: 7 fold

B1: TatA(F39A) fused to a YFP fragment (F39A-Y1; F39A-Y2) (natural protein, E. coli, UniProt P69428 1-89, looked up)
chain: MGGISIWQLLIIAVIVVLLFGTKKLGSIGSDLGASIKGAKKAMSDDEPKQDKTSQDADFTAKTIADKQADTNQEQAKTEDAKRHDKEQV
notes: TatA, E. coli, full length, with F39A in the predicted amphipathic region; also called TatA(F39A)-Y1; TatA(F39)-Y2; source: E. coli TG1 ΔtatABCE (also TG1 ΔtatAE), co-expressed from plasmids pF39A-Y1 and pF39A-Y2, in living cells
BiFC signal relative to the wt TatA homo-oligomers [7]: ~2 fold
